# PMC3296934 (Frontiers in Molecular Neuroscience, 2012)
# B1: GST-RK fragment F125-K175 (domain or fragment)
# chain: FLDAETVARARAGAGDGLFQPLLRAVLAHLGQAPFQEFLDSLYFLRFLQWK
# B2: GST-RK fragment M1-L102 (domain or fragment)
# chain: MDFGSLETVVANSAFIAARGSFDASSGPASRDRKYLARLKLPPLSKCEALRESLDLGFEGMCLEQPIGKRLFQQFLRTHEQHGPALQLWKDIEDYDTADDAL
# B3: GST-RK fragment L102-G183 (domain or fragment)
# chain: LRPQKAQALRAAYLEPQAQLFCSFLDAETVARARAGAGDGLFQPLLRAVLAHLGQAPFQEFLDSLYFLRFLQWKWLEAQPMG
# B4: GST fusion of the RK amino terminal region (N-RK: M1-G183) (domain or fragment)
# chain: MDFGSLETVVANSAFIAARGSFDASSGPASRDRKYLARLKLPPLSKCEALRESLDLGFEGMCLEQPIGKRLFQQFLRTHEQHGPALQLWKDIEDYDTADDALRPQKAQALRAAYLEPQAQLFCSFLDAETVARARAGAGDGLFQPLLRAVLAHLGQAPFQEFLDSLYFLRFLQWKWLEAQPMG
# Target: calmodulin (bovine, UniProt P62157 1-149)
# Test: SPR
row,Kd,Binder
1,17 µM,B1
2,54 µM,B2
3,23 µM,B3
4,63 µM,B4
